# Data: patent publication US10704030B2, “P450-BM3 variants with improved activity” (Codexis, Inc., priority 2015, dated 2020)
# Substitutions are numbered along the chain they refer to. Numbers in names are those of the source.
# B1: Variant 12: P450-BM3 variant of SEQ ID NO: 12: K32R; C48S; Y52F; I95P; Q111R; G115R; D232H; M491A; T577A; A627S; D722S (protein)
# chain: MTIKEMPQPKTFGELKNLPLLNTDKPVQALMRIADELGEIFKFEAPGSVTRFLSSQRLIKEACDESRFDKNLSQALKFSRDFAGDGLFTSWTHEPNWKKAHNILLPSFSQRAMKRYHAMMVDIAVQLVQKWERLNADEHIEVSEDMTRLTLDTIGLCGFNYRFNSFYRDQPHPFIISMVRALDEVMNKLQRANPDDPAYDENKRQCQEDIKVMNDLVDKIIADRKARGEQSHDLLTQMLNGKDPETGEPLDDGNISYQIITFLIAGHETTSGLLSFALYFLVKNPHVLQKVAEEAARVLVDPVPSYKQVKQLKYVGMVLNEALRLWPTAPAFSLYAKEDTVLGGEYPLEKGDEVMVLIPQLHRDKTIWGDDVEEFRPERFENPSAIPQHAFKPFGNGQRACIGQQFALHEATLVLGMMLKHFDFEDHTNYELDIKETLTLKPEGFVVKAKSKKIPLGGIPSPSTEQSAKKVRKKAENAHNTPLLVLYGSNAGTAEGTARDLADIAMSKGFAPQVATLDSHAGNLPREGAVLIVTASYNGHPPDNAKQFVDWLDQASADEVKGVRYSVFGCGDKNWAATYQKVPAFIDETLAAKGAENIADRGEADASDDFEGTYEEWREHMWSDVASYFNLDIENSEDNKSTLSLQFVDSAADMPLAKMHGAFSTNVVASKELQQPGSARSTRHLEIELPKEASYQEGDHLGVIPRNYEGIVNRVTARFGLSASQQIRLEAEEEKLAHLPLAKTVSVEELLQYVELQDPVTRTQLRAMAAKTVCPPHKVELEALLEKQAYKEQVLAKRLTMLELLEKYPACEMKFSEFIALLPSIRPRYYSISSSPRVDEKQASITVSVVSGEAWSGYGEYKGIASNYLAELQEGDTITCFISTPQSEFTLPKDPETPLIMVGPGTGVAPFRGFVQARKQLKEQGQSLGEAHLYFGCRSPHEDYLYQEELENAQSEGIITLHTAFSRMPNQPKTYVQHVMEQDGKKLIELLDQGAHFYICGDGSQMAPAVEATLMKSYADVHQVSEADARLWLQQLEEKGRYAKDVWAG
# modifications: P450_BM3
# notes: C48S; Y52F; I95P; Q111R; G115R; D232H; M491A; T577A; A627S; D722S
# B2: Variant 13: P450-BM3 variant of SEQ ID NO: 12: K32R; C48S; Y52F; I95P; G115R; D232H; M491A; N574T; T577A; E619D; A627S; D722S (protein)
# chain: B1 chain with R111Q, N574T, E619D
# modifications: P450_BM3
# notes: C48S; Y52F; I95P; G115R; D232H; M491A; N574T; T577A; E619D; A627S; D722S
# B3: SEQ ID NO: 14: P450-BM3 parental backbone from the commercially available MCYP panel (MCYP-0343; Codexis) (protein)
# chain: MTIKEMPQPKTFGELKNLPLLNTDKPVQALMKIADELGEIFKFEAPGLVTRYLSSQRLIKEACDESRFDKNLSQALKFARDFAGDGLFTSWTHEKNWKKAHNILLPSFSQQAMKGYHAMMVDIAVQLVQKWERLNADEHIEVPEDMTRLTLDTIGLCGFNYRFNSFYRDQPHPFITSMVRALDEAMNKQQRANPDDPAYDENKRQFQEDIKVMNDLVDKIIADRKASGEQSDDLLTHMLNGKDPETGEPLDDENIRYQIITFLIAGHETTSGLLSFALYFLVKNPHVLQKAAEEAARVLVDPVPSYKQVKQLKYVGMVLNEALRLWPTAPAFSLYAKEDTVLGGEYPLEKGDELMVLIPQLHRDKTIWGDDVEEFRPERFENPSAIPQHAFKPFGNGQRACIGQQFALHEATLVLGMMLKHFDFEDHTNYELDIKETLTLKPEGFVVKAKSKKIPLGGIPSPSTEQSAKKVRKKAENAHNTPLLVLYGSNMGTAEGTARDLADIAMSKGFAPQVATLDSHAGNLPREGAVLIVTASYNGHPPDNAKQFVDWLDQASADEVKGVRYSVFGCGDKNWATTYQKVPAFIDETLAAKGAENIADRGEADASDDFEGTYEEWREHMWSDVAAYFNLDIENSEDNKSTLSLQFVDSAADMPLAKMHGAFSTNVVASKELQQPGSARSTRHLEIELPKEASYQEGDHLGVIPRNYEGIVNRVTARFGLDASQQIRLEAEEEKLAHLPLAKTVSVEELLQYVELQDPVTRTQLRAMAAKTVCPPHKVELEALLEKQAYKEQVLAKRLTMLELLEKYPACEMKFSEFIALLPSIRPRYYSISSSPRVDEKQASITVSVVSGEAWSGYGEYKGIASNYLAELQEGDTITCFISTPQSEFTLPKDPETPLIMVGPGTGVAPFRGFVQARKQLKEQGQSLGEAHLYFGCRSPHEDYLYQEELENAQSEGIITLHTAFSRMPNQPKTYVQHVMEQDGKKLIELLDQGAHFYICGDGSQMAPAVEATLMKSYADVHQVSEADARLWLQQLEEKGRYAKDVWAG
# modifications: P450_BM3
# B4: Variant 1: P450-BM3 variant of SEQ ID NO: 14: Y52F; K95P; G115R; T176V; L216Y; D232H; E349T; M491A; T577A; E619D (protein)
# chain: B3 chain with Y52F, K95P, G115R, T176V, L216Y, D232H, E349T, M491A, T577A, E619D
# modifications: P450_BM3
# notes: K95P; G115R; T176V; L216Y; D232H; E349T; M491A; T577A; E619D
# B5: Variant 2: P450-BM3 variant of SEQ ID NO: 14: Y52F; G115R; T176V; L216Y; D232H; P347T; E349T; T577A; D722S (protein)
# chain: B3 chain with Y52F, G115R, T176V, L216Y, D232H, P347T, E349T, T577A, D722S
# modifications: P450_BM3
# notes: G115R; T176V; L216Y; D232H; P347T; E349T; T577A; D722S
# B6: SEQ ID NO:16: P450-BM3 parental backbone from the commercially available MCYP panel (MCYP-0343; Codexis) (protein)
# chain: MTIKEMPQPKTFGELKNLPLLNTDKPVQALMKIADELGEIFKFEAPGCVTRYLSSQRLIKEACDESRFDKNLSQALKFARDFLGDGLVTSWTHEINWKKAHNILLPSFSQQAMKGYHAMMVDIAVQLVQKWERLNADEHIEVSEDMTRLTLDTIGLCGFNYRFNSFYRDQPHPFIISMVRALDEVMNKLQRANPDDPAYDENKRQCQEDIKVMNDLVDKIIADRKARGEQSDDLLTQMLNGKDPETGEPLDDGNISYQIITFLIAGHETTSGLLSFALYFLVKNPHVLQKVAEEAARVLVDPVPSYKQVKQLKYVGMVLNEALRLWPTAPAFSLYAKEDTVLGGEYPLEKGDEVMVLIPQLHRDKTIWGDDVEEFRPERFENPSAIPQHAFKPFGNGQRACIGQQFALHEATLVLGMMLKHFDFEDHTNYELDIKETLTLKPEGFVVKAKSKKIPLGGIPSPSTEQSAKKVRKKAENAHNTPLLVLYGSNMGTAEGTARDLADIAMSKGFAPQVATLDSHAGNLPREGAVLIVTASYNGHPPDNAKQFVDWLDQASADEVKGVRYSVFGCGDKNWATTYQKVPAFIDETLAAKGAENIADRGEADASDDFEGTYEEWREHMWSDVAAYFNLDIENSEDNKSTLSLQFVDSAADMPLAKMHGAFSTNVVASKELQQPGSARSTRHLEIELPKEASYQEGDHLGVIPRNYEGIVNRVTARFGLDASQQIRLEAEEEKLAHLPLAKTVSVEELLQYVELQDPVTRTQLRAMAAKTVCPPHKVELEALLEKQAYKEQVLAKRLTMLELLEKYPACEMKFSEFIALLPSIRPRYYSISSSPRVDEKQASITVSVVSGEAWSGYGEYKGIASNYLAELQEGDTITCFISTPQSEFTLPKDPETPLIMVGPGTGVAPFRGFVQARKQLKEQGQSLGEAHLYFGCRSPHEDYLYQEELENAQSEGIITLHTAFSRMPNQPKTYVQHVMEQDGKKLIELLDQGAHFYICGDGSQMAPAVEATLMKSYADVHQVSEADARLWLQQLEEKGRYAKDVWAG
# modifications: P450_BM3
# Assay: Validation of generalist properties: oxidation of imatinib by lyophilized P450-BM3 variant, UPLC-MS
# Assay type: biochemical
# Details: [Imatinib] = 1 mM
# How it was run: (§1)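 Lyophilized lysate of E. coli-expressed P450-BM3 variant (stock standardized to 12 μM heme) was incubated 24 h at 30 °C with 1 or 2 mM substrate, 1.0 mM NADP+, 25 mM glucose, 0.5 mg/mL glucose dehydrogenase and 5% DMSO in 100 mM potassium phosphate. Acetonitrile-quenched samples were analyzed by UPLC-MS (positive ESI).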
row,Molecule,% Conv.
1,B1,++++ (15.01-20.00)
2,B2,++++ (15.01-20.00)
3,B3,+ (0-5.00)
4,B4,++++ (15.01-20.00)
5,B5,++++ (15.01-20.00)
6,B6,+ (0-5.00)

# Same assay, conditions: [Imatinib] = 1 mM; TON = [substrate]*% conversion/[P450]
row,Molecule,TON
1,B1,‡‡‡‡ (10000-50000)
2,B2,‡‡‡‡ (10000-50000)
3,B3,‡‡ (1001-5000)
4,B4,‡‡‡‡ (10000-50000)
5,B5,‡‡‡‡ (10000-50000)
6,B6,‡‡ (1001-5000)

# Same assay, conditions: [Imatinib] = 1 mM; fold improvement over parent MCYP-P1.2-D06
row,Molecule,FIOPC (D06)
1,B1,*** (5.01-10.0)
2,B2,*** (5.01-10.0)

# Same assay, conditions: [Imatinib] = 1 mM; fold improvement over parent MCYP-P1.2-F02
row,Molecule,FIOPC (F02)
1,B4,**** (10.01-15.00)
2,B5,**** (10.01-15.00)

# Assay: Validation of generalist properties: oxidation of gefitinib by lyophilized P450-BM3 variant, UPLC-MS
# Assay type: biochemical
# Details: [Gefitinib] = 1 mM
# How it was run: as §1
row,Molecule,% Conv.
1,B1,+ (0-5.00)
2,B2,+ (0-5.00)
3,B3,+ (0-5.00)
4,B4,+ (0-5.00)
5,B5,+ (0-5.00)
6,B6,+ (0-5.00)

# Same assay, conditions: [Gefitinib] = 1 mM; TON = [substrate]*% conversion/[P450]
row,Molecule,TON
1,B1,‡ (0-1000)
2,B2,‡‡ (1001-5000)
3,B3,‡ (0-1000)
4,B4,‡ (0-1000)
5,B5,‡ (0-1000)
6,B6,‡‡ (1001-5000)

# Same assay, conditions: [Gefitinib] = 1 mM; fold improvement over parent MCYP-P1.2-D06
row,Molecule,FIOPC (D06)
1,B1,* (0.0-3.0)
2,B2,**** (10.01-15.00)

# Same assay, conditions: [Gefitinib] = 1 mM; fold improvement over parent MCYP-P1.2-F02
row,Molecule,FIOPC (F02)
1,B4,* (0.0-3.0)
2,B5,* (0.0-3.0)

# Assay: Validation of generalist properties: oxidation of loratadine by lyophilized P450-BM3 variant, UPLC-MS
# Assay type: biochemical
# Details: [Loratadine] = 1 mM
# How it was run: as §1
row,Molecule,% Conv.
1,B1,++ (5.01-10.00)
2,B2,+ (0-5.00)
3,B3,+ (0-5.00)
4,B4,+ (0-5.00)
5,B5,+ (0-5.00)
6,B6,+++ (10.01-15.00)

# Same assay, conditions: [Loratadine] = 1 mM; TON = [substrate]*% conversion/[P450]
row,Molecule,TON
1,B1,‡‡ (1001-5000)
2,B2,‡‡ (1001-5000)
3,B3,‡‡ (1001-5000)
4,B4,‡‡ (1001-5000)
5,B5,‡‡ (1001-5000)
6,B6,‡‡‡ (5001-10000)

# Same assay, conditions: [Loratadine] = 1 mM; fold improvement over parent MCYP-P1.2-D06
row,Molecule,FIOPC (D06)
1,B1,* (0.0-3.0)
2,B2,* (0.0-3.0)

# Same assay, conditions: [Loratadine] = 1 mM; fold improvement over parent MCYP-P1.2-F02
row,Molecule,FIOPC (F02)
1,B4,* (0.0-3.0)
2,B5,* (0.0-3.0)

# Assay: Validation of generalist properties: oxidation of diclofenac by lyophilized P450-BM3 variant, UPLC-MS
# Assay type: biochemical
# Details: [Diclofenac] = 1 mM
# How it was run: as §1
row,Molecule,% Conv.
1,B1,+++ (10.01-15.00)
2,B2,++++ (15.01-20.00)
3,B3,+ (0-5.00)
4,B4,+ (0-5.00)
5,B5,+ (0-5.00)
6,B6,++++ (15.01-20.00)

# Same assay, conditions: [Diclofenac] = 1 mM; TON = [substrate]*% conversion/[P450]
row,Molecule,TON
1,B1,‡‡‡ (5001-10000)
2,B2,‡‡‡ (5001-10000)
3,B3,‡ (0-1000)
4,B4,‡‡ (1001-5000)
5,B5,‡‡ (1001-5000)
6,B6,‡‡‡‡ (10000-50000)

# Same assay, conditions: [Diclofenac] = 1 mM; fold improvement over parent MCYP-P1.2-D06
row,Molecule,FIOPC (D06)
1,B1,** (3.01-5.0)
2,B2,*** (5.01-10.0)

# Same assay, conditions: [Diclofenac] = 1 mM; fold improvement over parent MCYP-P1.2-F02
row,Molecule,FIOPC (F02)
1,B4,**** (10.01-15.00)
2,B5,**** (10.01-15.00)
